Laboratory results from patent US20070184522A1, “Cell death modulation via antagonists of Fasl and Fas activation” (University of Pittsburgh of the Commonwealth System of …, priority 2004, published 2007).
One block for each molecule: values may come before it.

What was measured:
[1] = biological target: CFP-tagged and YFP-tagged Fas expressed in Hepa 1-6 cells; experiment: cell-based or functional assay
[2] = biological target: endogenous Fas of Jurkat cells (human) (UniProt P25445); experiment: cell-based or functional assay
[3] = biological target: T1, Fas trimerization in Jurkat cells (Homo sapiens, UniProt P25445); experiment: Chemical crosslinking (DTSSP) and Western blot of Fas trimerization in Jurkat cells; type: cell-based; details: Fas-Ligand and DTSSP
T1 construct: endogenous in cells; host or cells: Jurkat
T1 sequence (P25445 26-335): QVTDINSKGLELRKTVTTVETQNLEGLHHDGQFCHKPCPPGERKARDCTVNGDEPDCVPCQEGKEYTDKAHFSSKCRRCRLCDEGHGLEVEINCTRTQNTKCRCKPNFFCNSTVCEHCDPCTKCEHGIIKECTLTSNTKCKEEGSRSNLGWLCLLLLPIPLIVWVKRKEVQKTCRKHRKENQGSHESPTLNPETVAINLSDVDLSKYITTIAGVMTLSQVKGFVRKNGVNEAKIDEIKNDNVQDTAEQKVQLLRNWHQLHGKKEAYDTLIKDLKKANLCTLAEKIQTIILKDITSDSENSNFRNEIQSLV
Method: FIG. 3a presents data collected from Jurkat cells (1×10^6) treated with 2 μg/ml of Fas Ligand with or without AlphaMet for 30 minutes on ice. Cells were washed with PBS twice and then incubated with 2 mM of DTSSP in PBS for 30 minutes. The crosslinking process was stopped by 20 mM of Tris (pH 7.5) for another 30 minutes. Cells were spun down and washed with PBS twice and lyzed in RIPA buffer. Cell lysates were subjected to SDS-PAGE under non-reducing or reducing conditions (FIG. 3b) and Western blot analysis using the mouse monoclonal antibody against human Fas. FIG. 3c depicts the quantification of the data in FIG. 3a by densitometry. The data are the mean and SE from three different independent crosslinking and Western blot experiments. […] Frame A: Acceptor CFP-Fas image; Frame B: Acceptor pre-bleach CFP-Fas image; Frame C: Acceptor post-bleach image. Frame D: Donor YFP-Fas image; Frame E: Donor pre-bleach image; Frame F: […]. The CFP-Fas strength in the selected region obtained a gain of 19.3% efficiency in the presence of FasL for 15 minutes. No FRET was observed without FasL. […] FIG. 3e depicts the results of experiments in which CFP-tagged Fas or CFP control vector were transiently expressed in Hepa 1-6 Cells (3×10^5). […] Cells were fixed and analyzed by fluorescence microscopy. […]

[4] = system: Fas self-assembly in Hepa 1-6 cells; experiment: FRET assay of CFP-Fas/YFP-Fas in transfected Hepa 1-6 cells; type: cell-based; details: Hepa 1-6, FasL for 15 minutes
Method: FIG. 3a presents data collected from Jurkat cells (1×10^6) treated with 2 μg/ml of Fas Ligand with or without AlphaMet for 30 minutes on ice. Cells were washed with PBS twice and then incubated with 2 mM of DTSSP in PBS for 30 minutes. The crosslinking process was stopped by 20 mM of Tris (pH 7.5) for another 30 minutes. Cells were spun down and washed with PBS twice and lyzed in RIPA buffer. Cell lysates were subjected to SDS-PAGE under non-reducing or reducing conditions (FIG. 3b) and Western blot analysis using the mouse monoclonal antibody against human Fas. FIG. 3c depicts the quantification of the data in FIG. 3a by densitometry. The data are the mean and SE from three different independent crosslinking and Western blot experiments. […] Frame A: Acceptor CFP-Fas image; Frame B: Acceptor pre-bleach CFP-Fas image; Frame C: Acceptor post-bleach image. Frame D: Donor YFP-Fas image; Frame E: Donor pre-bleach image; Frame F: Donor pre-bleach image. […] Cells were fixed and analyzed by fluorescence microscopy. […]
FRET assay. […] Fret efficiency (E) was calculated as FRETeff=(Dpost−Dpre)/Dpost (Dpost and Dpre are the mean emission intensity […] YFP bleaching).
Fluorescence protein tagged Fas molecules and Hepa 1-6 cells were used for these experiments. […] In these experiments the percent of Fas capping was also determined.

[5] = system: Fas capping in Hepa 1-6 cells; experiment: Fas capping of fluorescent protein tagged Fas in Hepa 1-6 cells; type: cell-based; details: Hepa 1-6, 30 minutes treatment
Method: FIG. 3a presents data collected from Jurkat cells (1×10^6) treated with 2 μg/ml of Fas Ligand with or without AlphaMet for 30 minutes on ice. Cells were washed with PBS twice and then incubated with 2 mM of DTSSP in PBS for 30 minutes. The crosslinking process was stopped by 20 mM of Tris (pH 7.5) for another 30 minutes. Cells were spun down and washed with PBS twice and lyzed in RIPA buffer. Cell lysates were subjected to SDS-PAGE under non-reducing or reducing conditions (FIG. 3b) and Western blot analysis using the mouse monoclonal antibody against human Fas. FIG. 3c depicts the quantification of the data in FIG. 3a by densitometry. The data are the mean and SE from three different independent crosslinking and Western blot experiments. […] Frame A: Acceptor CFP-Fas image; Frame B: Acceptor pre-bleach CFP-Fas image; Frame C: Acceptor post-bleach image. Frame D: Donor YFP-Fas image; Frame E: Donor pre-bleach image; Frame F: […]. The CFP-Fas strength in the selected region obtained a gain of 19.3% efficiency in the presence of FasL for 15 minutes. No FRET was observed without FasL. […] FIG. 3e depicts the results of experiments in which CFP-tagged Fas or CFP control vector were transiently expressed in Hepa 1-6 Cells (3×10^5). Cells were treated with 1 μg/ml of Fas ligand or 100 ng/ml of Jo2 with or without 5 μg/ml of AlphaMet or 1 μg/ml of YLGA 12 mer for 30 minutes on ice. Cells were fixed and analyzed by fluorescence microscopy. Frame A: AlphaMet treatment only, no FasL; Frame B: Fas ligand treatment only; Frame C: Fas ligand and AlphaMet treatment; Frame D: Fas ligand and 12 mer YLGA; Frame E: Jo2 treatment only and Frame F: Jo2 and AlphaMet treatment.
Fluorescence protein tagged Fas molecules and Hepa 1-6 cells were used for these experiments. These cells were transiently co-transfected with CFP and YFP chimeric Fas expression vectors using the lipofectamine 2000 method (Invitrogen). After 24 hours of transfection, about 50% of the cells were fluorescing. The cells were treated by Fas-ligand in the presence or absence of AlphaMet for 30 minutes. Treated cells were then fixed with cold methanol and subjected to FRET analysis. Cells were considered positive if FRET efficiency was over 10%. FRET phenomenon was observed only in cells that were treated with Fas-ligand. […] In these experiments the percent of Fas capping was also determined.

[6] = system: Jurkat cells; experiment: Fas-ligand induced apoptosis in Jurkat cells (Trypan Blue, flow cytometry); type: cell-based, human
Method: For FIG. 4a, Jurkat cells (1.5×10^5) were overnight treated in triplicate with 5 ng/ml of crosslinked human Fas ligand with or without 5 μg/ml of recombinant AlphaMet or 1 μg/ml of the indicated polypeptides. Percent apoptosis was determined by Trypan Blue staining using a hemocytometer. The data are representative and were repeated at least four times. […] The 17 kDa fragment of cleaved Caspase 3 is visualized by this antibody. The blot was reprobed for β-actin as a loading control. For FIG. 4c, serum deprived Hepa 1-6 cells (3×10^5) were overnight treated with 1 μg/ml of crosslinked mouse Fas ligand with or without AlphaMet or the indicated polypeptide. Media were collected and centrifuged to pellet the dead cells. […] The data in FIG. 4c represents three independent experiments.
Apoptosis assay. Pre-washed Jurkat cells in RPMI 1640 medium containing 1% FBS were inoculated in 96-wells at a density of 10^5 cells per well. Apoptosis was induced by cross-linked human Fas-ligand (R&D Systems) at a concentration of 0.5 ng/ml or Anti-Fas (human, activating) clone CH11 (Upstate biotechnology) at a concentration of 500 ng /ml. Hepa 1-6 cells were overnight starved before induction of apoptosis. The apoptosis in Hepa 1-6 was induced by anti-mouse Fas antibody Jo2 (200 ng/ml) or human recombinant Fas-ligand. The extent of cell viability and apoptosis was determined by several methods such as Trypan Blue stain, flow cytometry, LDH assay, and Hoechst staining.

FRET efficiency between CFP-Fas and YFP-Fas [1]: 19.3% | percent of fluorescent cells showing Fas capping [1]: 20% | Fas trimerization (DTSSP crosslinking, Western blot, densitometry) [2]: 3 fold
Molecule: soluble Fas Ligand (recombinant FasL)

intensity of trimeric Fas complex versus ligand unstimulated crosslinked cells [3]: about 3 fold
B1: FasL: recombinant soluble Fas Ligand, cognate ligand of Fas, used to induce apoptosis (protein)
chain: QLFHLQKELAELRESTSQMHTASSLEKQIGHPSPPPEKKELRKVAHLTGKSNSRSMPLEWEDTYGIVLLSGVKYKKGGLVINETGLYFVYSKVYFRGQSCNNLPLSHKVYMRNSKYPQDLVMMEGKMMSYCTTGQMWARSSYLGAVFNLTSADHLYVNVSELSLVNFEESQTFFGLYKL
FRET efficiency gain [4]: 19.3% | fluorescent cells showing Fas capping [5]: 20% | death rate ([6]; Fas-ligand overnight, AlphaMet 5 μg/ml, Trypan Blue): about 50% | sub-G1 (apoptotic) population ([6]; Propidium Iodide flow cytometry, Fas-ligand): 48%
